From patent US20230383007A1 (BIOSION, published 2023)

Columns and labels:
[1] = molecular target: T1, human TROP2-his protein (human, UniProt P09758 27-274); test: competitive ELISA: antibody pre-mixed with biotin labeled human TROP2-his, added to plate coated with the benchmark (sacituzumab analog); unit taken from the x axis (ng/mL)
T1 construct: also called biotin labeled human TROP2-his protein
T1 sequence: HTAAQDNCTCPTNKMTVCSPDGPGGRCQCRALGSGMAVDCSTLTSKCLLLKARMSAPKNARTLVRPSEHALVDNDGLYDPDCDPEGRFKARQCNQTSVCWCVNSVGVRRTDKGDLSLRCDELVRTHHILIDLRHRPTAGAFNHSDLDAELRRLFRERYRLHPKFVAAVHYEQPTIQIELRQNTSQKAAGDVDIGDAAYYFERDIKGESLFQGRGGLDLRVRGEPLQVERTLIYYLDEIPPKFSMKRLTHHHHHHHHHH
Protocol: The anti-TROP2 antibodies were tested for their epitope binding in a competitive ELISA assay. Briefly, 100 μl of the benchmark at 1 μg/mL in PBS was coated on 96-well micro plates for 2 hours at 37° C. ELISA plates were washed once with wash buffer (PBS+0.05% v/v Tween-20, PBST) and then blocked with 200 μl blocking buffer (5% w/v non-fatty milk in PBST) for 2 hours at 37° C. While blocking, the anti-TROP2 antibodies of the disclosure or controls were diluted with biotin labeled human TROP2-his protein (SEQ ID NO: 16, 34 ng/mL in 2.5% w/v non-fatty milk in PBST), starting at 80 nM with a 5-fold serial dilution, and incubated at room temperature for 40 minutes. After plate washing 4 times, the antibody/TROP2-his protein mixtures were added to benchmark coated plates, 100 μl per well. After incubation at 37° C. for 40 minutes, plates were washed 4 times again using wash buffer. Then the plates were added and incubated with 100 μl Peroxidase Streptavidin (1:10000 dilution in PBST buffer, Jackson Immunoresearch, Cat #016-030-084) for 40 minutes at 37° C. Plates were washed again using wash buffer. […] The absorbance of each well was read on a microplate reader using dual wavelength mode with 450 nm for TMB and 630 nm as the reference wavelength, and the OD (450-630) values were plotted against antibody concentration. Data was analyzed using Graphpad Prism software and IC₅₀ values were reported.

[2] = molecular target: T1, human TROP2-his protein; test: SPR Biacore T200; antibody captured on anti-human IgG CM5 chip, TROP2-his as analyte in 2-fold dilutions from 160 nM; 1:1 Langmuir fit
Description: (§1) The purified anti-TROP2 mouse monoclonal antibodies (mAbs) were characterized for binding affinity and binding kinetics by Biacore T200 system (GE healthcare, Pittsburgh, PA, USA). Briefly, goat anti-human IgG (GE healthcare, Cat #BR100839, Human Antibody Capture Kit) was covalently linked to a CM5 chip (carboxy methyl dextran coated chip from GE healthcare #BR100530) via primary amines, using a standard amine coupling kit (GE healthcare, Pittsburgh, PA, USA) provided by Biacore. Un-reacted moieties on the chip (biosensor) surface were blocked with ethanolamine. The anti-TROP2 antibodies of the disclosure and the benchmark at the concentration of 2 μg/ml were respectively flowed onto the chip at a flow rate of 10 μL/min. Then, serially diluted human TROP2-his protein (prepared in-house with SEQ ID NO: 16), or cynomolgus TROP2-his protein (prepared in-house with SEQ ID NO: 19), 2-fold dilution in HBS-EP⁺ buffer (provided by Biacore) starting at 160 nM, were flowed onto the chip at a flow rate of 30 μL/min. The antigen-antibody association kinetics was followed for 2 minutes and the dissociation kinetics was followed for 10 minutes. The association and dissociation curves were fit to a 1:1 Langmuir binding model using BIAcore evaluation software.

[3] = molecular target: T2, cynomolgus TROP2-his protein (cynomolgus, UniProt P09758 27-272 (human entry), limits assumed); test: as above
T2 construct: also called Cyno TROP2-his; Cynomolgus monkey TROP2-his protein
T2 chain: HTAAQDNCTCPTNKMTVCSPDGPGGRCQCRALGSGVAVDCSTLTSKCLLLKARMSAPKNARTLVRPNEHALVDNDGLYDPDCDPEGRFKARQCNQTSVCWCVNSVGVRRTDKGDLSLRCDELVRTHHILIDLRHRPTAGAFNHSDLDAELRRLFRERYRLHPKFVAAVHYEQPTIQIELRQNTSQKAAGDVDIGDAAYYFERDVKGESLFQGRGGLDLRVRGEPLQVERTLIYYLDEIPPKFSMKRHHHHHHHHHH
Description: as §1

[4] = molecular target: T1, human TROP2-his protein; test: indirect ELISA, plate coated with 1 ug/ml TROP2-his; bacterial culture supernatant
Protocol: (§2) ELISA plates were coated with 100 μl 1 μg/ml human TROP2-his protein (in house made with SEQ ID NO: 16), or 1 μg/ml cynomolgus TROP2-his protein (in house made with SEQ ID NO: 19) in carbonate/bicarbonate buffer (pH 9.6) overnight at 4° C., washed once with wash buffer (PBS+0.05% v/v Tween-20, PBST) and then blocked with 200 μl/well blocking buffer (5% w/v non-fatty milk in PBST) for 2 hours at 37° C. Plates were washed 4 times, and respectively incubated with 100 μl bacterial culture supernatant, and sacituzumab (used as the benchmark, also referred to as BM or BM1 hereinafter, in house made with heavy chain and light chain amino acid sequences set forth in SEQ ID NOs: 17 and 18) in 5% w/v non-fatty milk in PBST at 200 ng/ml, for 40 minutes at 37° C. The plates were washed 4 times, and incubated with THE™ HA Tag Antibody [HRP], mAb, Mouse Antibody (1:5000 dilution in PBST, GenScript, Cat #A01296, 100 μl/well, for plates with bacterial culture supernatans of the disclosure) or Peroxidase AffiniPure F(ab′)₂ Fragment Goat Anti-Human IgG, Fey fragment specific (Jackson Immunoresearch, Cat #109-036-098, for plates with the benchmark), for 40 minutes at 37° C. After a final wash, plates were incubated with 100 μl/well ELISA substrate TMB (Innoreagents, Cat #TMB-S-002) at room temperature. The reaction was stopped in 3-10 minutes with 50 μl/well 1M H₂SO₄, and the absorbance of each well was read on a microplate reader using dual wavelength mode with 450 nm for TMB and 630 nm as the reference wavelength. When the OD of a sample well was 2 times higher than the OD of the blank well, the sample can be determined as positive.

[5] = molecular target: T2, cynomolgus TROP2-his protein; test: as above
Protocol: as §2

[6] = molecular target: T1, human TROP2-his protein; test: indirect ELISA, plate coated with human TROP2-his; unit taken from the x axis (Con of mAb, ng/mL)
Protocol: The single domain antibodies of the disclosure were tested in the indirect ELISA for their cross-reaction with cynomolgus TROP2 protein. Briefly, 96-well micro plates were coated with 100 μl 2 μg/ml human TROP2-his protein (prepared in-house with SEQ ID NO: 16) in carbonate/bicarbonate buffer (pH 9.6) overnight at 4° C. ELISA plates were washed once with wash buffer (PBS+0.05% v/v Tween-20, PBST) and then blocked with 200 μl/well blocking buffer (5% w/v non-fatty milk in PBST) for 2 hours at 37° C. Plates were washed 4 times and incubated with 100 μl/well serially diluted anti-TROP2 antibodies of the disclosure or controls (starting at 66.7 nM, 5-fold serial dilution in 2.5% w/v non-fatty milk in PBST) for 40 minutes at 37° C. ELISA plates were washed 4 times again and incubated with Peroxidase AffiniPure F(ab′)₂ Fragment Goat Anti-Human IgG, Fey fragment specific (Jackson Immuno Research, Cat #109-036-098, 1:5000 dilution in PBST buffer, 100 μl/well) for 40 minutes at 37° C. After a final wash, plates were incubated with 100 μl/well TMB (Innoreagents) at room temperature. The reaction was stopped 3-10 minutes later at room temperature with 50 μl/well 1M H₂SO₄, and the absorbance of each well was read on a microplate reader using dual wavelength mode with 450 nm for TMB and 630 nm as the reference wavelength. The OD (450-630) values were plotted against antibody concentration. Data was analyzed using Graphpad Prism software and EC₅₀ values were reported.

- IC50 [1]: 0.0417 µg/mL
- Kd [2]: 97.5 pM
- koff [2]: 2.73e-05 s⁻¹
- kon [2]: 280000 M⁻¹ s⁻¹
- Kd [3]: 647 pM
- koff [3]: 0.000172 s⁻¹
- kon [3]: 266000 M⁻¹ s⁻¹
- Indirect ELISA OD (450-630) [4]: 1.03 OD (450-630)
- Indirect ELISA OD (450-630) [5]: 0.56 OD (450-630)
- EC50 [6]: 0.0177 µg/mL
B1: single domain antibody 01-5A (VHH)
VHH: QVQLVESGGGTVGAGGSLRLSCVVSGLPYERYCVAWFRQGPGKEREGVARILSDGTTSYSDSVKGRFTISKDNAKNTLYLQMNSLKSEDTATYYCAAEAFRPFTPSDGDCTTVLGIDYWGKGTLVTVSS
